Experiments:
human IL-1β [1] = target: T1, human IL-1β (human, UniProt P01584 117-269, biotinylated in the ELISA (site not stated)); assay: cell-based or functional assay
human IL-1α [2] = target: T2, human IL-1α (human, UniProt P01583 113-271, biotinylated in the ELISA (site not stated)); assay: cell-based or functional assay
T2 sequence: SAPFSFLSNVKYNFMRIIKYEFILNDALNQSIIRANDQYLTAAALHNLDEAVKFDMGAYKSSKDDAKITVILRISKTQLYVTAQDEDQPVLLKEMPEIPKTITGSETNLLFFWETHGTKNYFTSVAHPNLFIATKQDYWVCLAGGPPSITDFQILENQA

cynomolgus IL-1α [3] = target: T3, cynomolgus IL-1α (cynomolgus, UniProt P79340 113-271); assay: SPR (Biacore), DVD-Ig captured, antigen in solution
T3 construct: also called cyno IL-1α; Cyno IL-1α
T3 sequence (looked up): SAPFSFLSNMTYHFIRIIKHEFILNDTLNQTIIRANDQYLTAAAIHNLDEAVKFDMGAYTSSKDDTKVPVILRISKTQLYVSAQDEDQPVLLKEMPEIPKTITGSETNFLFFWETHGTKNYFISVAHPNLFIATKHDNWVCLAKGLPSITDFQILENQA

human IL-1α [4] = target: T2, human IL-1α; assay: as above
human IL-1α [5] = target: T2, human IL-1α; assay: Biacore (SPR), sequential injections on captured DVD-Ig: IL-1α as 2nd injection, after IL-1β
human IL-1α [6] = target: T2, human IL-1α; assay: ELISA: DVD-Ig captured on anti-human Fc, biotinylated antigen titrated
Experimental: (§1) To determine if the anti-IL-1β mAbs bind to human IL-1β, ELISA plates (Nunc, MaxiSorp, Rochester, N.Y.) were incubated overnight at 4° C. with anti-human Fc antibody diluted in Pierce Coat buffer at 2 μg/ml (Jackson Immunoresearch, West Grove, Pa.). Plates were washed five times in washing buffer (PBS containing 0.05% Tween 20), and blocked for 1 hour at 25° C. with 200 μl per well superblock blocking buffer (Thermo scientific, No. 37515). Blocking buffer was removed by tapping plates, and 2 μg/ml of each antibody in PBS containing 10% Superblock, 0.5% Tween-20 was added to the wells at 100 μl/well and incubated at 25° C. for 1 hour. The wells were washed five times in 1×PBST, and 1 μg/ml biotinylated antigen was titrated at 1:6 serial dilutions (for a range of μg to pg in PBS containing 10% Superblock, 0.05% Tween 20). Each dilution of antigen was then added to the plates and incubated for 1 hour at 25° C. […] The wells were washed five times in 1×PBST, and 100 μl of ULTRA-TMB ELISA (Pierce, Rockford, Ill.) were added per well. Following color development the reaction was stopped with 1N HCL and absorbance at 450 nm was measured.
(§2) IL-1β and IL-1α binding by IL-1β/α DVD-Ig binding proteins was assessed by ELISA (assay described above, Example 2.1).

cynomolgus IL-1α [7] = target: T3, cynomolgus IL-1α; assay: cell-based or functional assay
cynomolgus IL-1β [8] = target: T4, cynomolgus IL-1β (cynomolgus, UniProt P79182 117-268); assay: cell-based or functional assay
T4 sequence (looked up): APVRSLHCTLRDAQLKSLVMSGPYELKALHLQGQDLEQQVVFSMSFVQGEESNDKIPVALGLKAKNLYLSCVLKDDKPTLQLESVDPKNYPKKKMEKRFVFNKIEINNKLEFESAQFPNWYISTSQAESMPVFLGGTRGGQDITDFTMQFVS

human IL-1β [9] = target: T1, human IL-1β; assay: SPR (Biacore), DVD-Ig captured, antigen in solution
cynomolgus IL-1β [10] = target: T4, cynomolgus IL-1β; assay: as above
human IL-1β [11] = target: T1, human IL-1β; assay: ELISA: DVD-Ig captured on anti-human Fc, biotinylated antigen titrated
Experimental: as §1, §2

human IL-1β [12] = target: T1, human IL-1β; assay: ELISA: antibody captured on anti-human Fc, biotinylated antigen titrated
Experimental: as §1

B1: X3-LL-E26.13 DVD-Ig (bispecific antibody, human IgG1, kappa, L234A L235A)
heavy: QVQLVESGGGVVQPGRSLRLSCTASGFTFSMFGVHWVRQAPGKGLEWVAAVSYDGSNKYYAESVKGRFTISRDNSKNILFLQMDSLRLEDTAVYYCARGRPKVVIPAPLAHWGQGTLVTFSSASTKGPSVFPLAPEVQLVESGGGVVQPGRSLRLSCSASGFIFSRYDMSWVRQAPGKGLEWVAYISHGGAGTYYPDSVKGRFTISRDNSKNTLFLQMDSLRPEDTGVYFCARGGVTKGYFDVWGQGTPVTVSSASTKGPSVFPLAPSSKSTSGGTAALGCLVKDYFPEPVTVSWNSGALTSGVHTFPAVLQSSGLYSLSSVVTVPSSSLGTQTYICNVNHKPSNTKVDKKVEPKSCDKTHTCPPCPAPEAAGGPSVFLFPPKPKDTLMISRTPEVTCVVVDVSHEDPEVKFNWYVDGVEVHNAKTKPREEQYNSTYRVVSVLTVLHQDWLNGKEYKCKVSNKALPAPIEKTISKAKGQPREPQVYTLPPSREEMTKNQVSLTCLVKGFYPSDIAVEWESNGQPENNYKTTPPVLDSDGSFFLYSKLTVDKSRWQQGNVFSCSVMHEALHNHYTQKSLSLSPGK
light: DIQMTQSPSSVSASVGDRVTITCRASQGISSWLAWYQQKPGKAPKLLIYEASNLETGVPSRFSGSGSGSDFTLTISSLQPEDFATYYCQQTSSFLLSFGGGTKVEHKRTVAAPSVFIFPPDIQMTQSPSSLSASVGDRVTITCRASGNIHNYLTWYQQTPGKAPKLLIYNAKTLADGVPSRFSGSGSGTDYTFTISSLQPEDIATYYCQHFWSIPYTFGQGTKLQITRTVAAPSVFIFPPSDEQLKSGTASVVCLLNNFYPREAKVQWKVDNALQSGNSQESVTEQDSKDSTYSLSSTLTLSKADYEKHKVYACEVTHQGLSSPVTKSFNRGEC
For B1, the “Potency (pM): neutralization of IL-1-induced hIL-8 in MRC5 cells” value (from here on “Potency (pM): neutralization”) (human IL-1β [1]) was 1470 pM and the “Potency (pM): neutralization” value (human IL-1α [2]) was 8.9 pM.

B2: E26.13-SS-X3 DVD-Ig (bispecific antibody, human IgG1, kappa, L234A L235A)
heavy: not shown
light: DIQMTQSPSSLSASVGDRVTITCRASGNIHNYLTWYQQTPGKAPKLLIYNAKTLADGVPSRFSGSGSGTDYTFTISSLQPEDIATYYCQHFWSIPYTFGQGTKLQITRTVAAPDIQMTQSPSSVSASVGDRVTITCRASQGISSWLAWYQQKPGKAPKLLIYEASNLETGVPSRFSGSGSGSDFTLTISSLQPEDFATYYCQQTSSFLLSFGGGTKVEHKRTVAAPSVFIFPPSDEQLKSGTASVVCLLNNFYPREAKVQWKVDNALQSGNSQESVTEQDSKDSTYSLSSTLTLSKADYEKHKVYACEVTHQGLSSPVTKSFNRGEC
notes: Dual variable domain immunoglobulin
A Kd (cynomolgus IL-1α [3]) of 4110 pM, a Kd (human IL-1α [4]) of 7.61 pM and a stoichiometry (human IL-1α [5]) of 1.6 were found for B2 in this work.

B3: E26.13-SS-X3 JM DVD-Ig (bispecific antibody, human IgG1, kappa, L234A L235A)
heavy: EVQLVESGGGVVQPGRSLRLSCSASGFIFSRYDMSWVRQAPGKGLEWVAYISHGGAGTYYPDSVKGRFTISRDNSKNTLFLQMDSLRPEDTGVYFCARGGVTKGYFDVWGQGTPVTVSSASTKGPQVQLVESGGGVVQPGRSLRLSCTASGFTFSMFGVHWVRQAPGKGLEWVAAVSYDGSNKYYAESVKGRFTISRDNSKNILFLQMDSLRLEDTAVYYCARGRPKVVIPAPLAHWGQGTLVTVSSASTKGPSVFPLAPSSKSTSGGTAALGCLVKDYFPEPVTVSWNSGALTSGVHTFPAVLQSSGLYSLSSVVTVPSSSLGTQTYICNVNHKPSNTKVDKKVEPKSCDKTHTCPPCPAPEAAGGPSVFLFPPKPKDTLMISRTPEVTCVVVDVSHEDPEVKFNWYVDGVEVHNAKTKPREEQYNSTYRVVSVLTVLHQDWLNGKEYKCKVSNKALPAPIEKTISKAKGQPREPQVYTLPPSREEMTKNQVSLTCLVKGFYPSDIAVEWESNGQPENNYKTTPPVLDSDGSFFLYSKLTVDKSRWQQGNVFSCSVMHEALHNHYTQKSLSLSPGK
light: DIQMTQSPSSLSASVGDRVTITCRASGNIHNYLTWYQQTPGKAPKLLIYNAKTLADGVPSRFSGSGSGTDYTFTISSLQPEDIATYYCQHFWSIPYTFGQGTKLQITRTVAAPDIQMTQSPSSVSASVGDRVTITCRASQGISSWLAWYQQKPGKAPKLLIYEASNLETGVPSRFSGSGSGSDFTLTISSLQPEDFATYYCQQTSSFLLSFGGGTKVEIKRTVAAPSVFIFPPSDEQLKSGTASVVCLLNNFYPREAKVQWKVDNALQSGNSQESVTEQDSKDSTYSLSSTLTLSKADYEKHKVYACEVTHQGLSSPVTKSFNRGEC
notes: Dual variable domain immunoglobulin; X3 is mutated in the J-region (X3 JM)
In the case of B3, the EC50 (human IL-1α [6]) is reported as 4.3 pM, the “Potency (pM): neutralization” value (cynomolgus IL-1α [7]) is reported as 1880 pM and the “Potency (pM): neutralization” value (cynomolgus IL-1β [8]) is reported as 17.6 pM. For the same binder, the “Potency (pM): neutralization” value (human IL-1α [2]) was 26.5 pM.

B4: E26.35-SS-X3 DVD-Ig (bispecific antibody, human IgG1, kappa, L234A L235A)
heavy: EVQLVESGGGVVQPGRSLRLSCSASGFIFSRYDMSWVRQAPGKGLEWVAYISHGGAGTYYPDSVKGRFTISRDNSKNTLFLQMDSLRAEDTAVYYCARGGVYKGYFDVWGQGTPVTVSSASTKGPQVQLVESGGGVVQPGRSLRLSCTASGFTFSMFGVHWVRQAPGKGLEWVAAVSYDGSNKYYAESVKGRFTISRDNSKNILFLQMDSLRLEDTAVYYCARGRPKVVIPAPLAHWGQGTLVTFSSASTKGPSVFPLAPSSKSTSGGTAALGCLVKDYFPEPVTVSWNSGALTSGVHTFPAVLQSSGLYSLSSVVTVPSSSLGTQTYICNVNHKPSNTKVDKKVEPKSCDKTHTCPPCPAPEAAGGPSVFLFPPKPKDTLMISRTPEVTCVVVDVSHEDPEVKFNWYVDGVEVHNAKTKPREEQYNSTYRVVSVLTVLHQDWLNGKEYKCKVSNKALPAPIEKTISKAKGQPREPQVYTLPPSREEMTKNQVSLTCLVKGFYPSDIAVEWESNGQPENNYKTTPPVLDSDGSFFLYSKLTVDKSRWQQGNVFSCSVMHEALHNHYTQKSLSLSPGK
light: DIQMTQSPSSLSASVGDRVTITCRASGNIHNYLTWYQQTPGKAPKLLIYNAKTLADGVPSRFSGSGSGTDYTFTISSLQPEDIATYYCQHFWSIPYTFGQGTKLQITRTVAAPDIQMTQSPSSVSASVGDRVTITCRASQGISSWLAWYQQKPGKAPKLLIYEASNLETGVPSRFSGSGSGSDFTLTISSLQPEDFATYYCQQTSSFLLSFGGGTKVEHKRTVAAPSVFIFPPSDEQLKSGTASVVCLLNNFYPREAKVQWKVDNALQSGNSQESVTEQDSKDSTYSLSSTLTLSKADYEKHKVYACEVTHQGLSSPVTKSFNRGEC
notes: as for B2
A Kd (human IL-1β [9]) of 5.03 pM, a koff (human IL-1β [9]) of 6.81e-06 s⁻¹ and a kon (human IL-1β [9]) of 1.32e+06 M⁻¹ s⁻¹ were found for B4 in this work. The Kd (cynomolgus IL-1α [3]) was 3270 pM, the koff (cynomolgus IL-1α [3]) was 0.000236 s⁻¹ and the kon (cynomolgus IL-1α [3]) was 72400 M⁻¹ s⁻¹. It also gave a Kd (cynomolgus IL-1β [10]) of 10.6 pM, a koff (cynomolgus IL-1β [10]) of 1.94e-05 s⁻¹ and a kon (cynomolgus IL-1β [10]) of 1.84e+06 M⁻¹ s⁻¹. It also gave a Kd (human IL-1α [4]) of 13.3 pM, a koff (human IL-1α [4]) of 2.14e-06 s⁻¹ and a kon (human IL-1α [4]) of 162000 M⁻¹ s⁻¹. For the same binder, the EC50 (human IL-1β [11]) was 8 pM, the EC50 (human IL-1α [6]) was 6.2 pM and the “Potency (pM): neutralization” value (human IL-1β [1]) was 1.8 pM. The “Potency (pM): neutralization” value (cynomolgus IL-1α [7]) was 474 pM, the “Potency (pM): neutralization” value (cynomolgus IL-1β [8]) was 0.6 pM and the “Potency (pM): neutralization” value (human IL-1α [2]) was 25.8 pM.

B5: E26.35-SS-X3 JM DVD-Ig (bispecific antibody, human IgG1, kappa, L234A L235A)
heavy: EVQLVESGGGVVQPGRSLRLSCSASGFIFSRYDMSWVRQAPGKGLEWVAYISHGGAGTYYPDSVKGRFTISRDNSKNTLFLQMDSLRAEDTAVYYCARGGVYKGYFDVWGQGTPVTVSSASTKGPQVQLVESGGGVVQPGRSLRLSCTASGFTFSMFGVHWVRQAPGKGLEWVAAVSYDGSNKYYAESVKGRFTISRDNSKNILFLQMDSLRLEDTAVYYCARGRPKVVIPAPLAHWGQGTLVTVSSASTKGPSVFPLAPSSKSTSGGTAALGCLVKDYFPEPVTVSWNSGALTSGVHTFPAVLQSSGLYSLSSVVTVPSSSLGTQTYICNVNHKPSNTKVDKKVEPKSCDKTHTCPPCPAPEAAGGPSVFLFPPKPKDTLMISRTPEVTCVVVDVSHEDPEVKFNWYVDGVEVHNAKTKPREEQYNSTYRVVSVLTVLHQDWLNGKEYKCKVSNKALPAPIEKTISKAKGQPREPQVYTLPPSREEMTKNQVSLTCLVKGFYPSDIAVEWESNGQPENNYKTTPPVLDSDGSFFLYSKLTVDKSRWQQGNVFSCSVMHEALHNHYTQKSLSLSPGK
light: DIQMTQSPSSLSASVGDRVTITCRASGNIHNYLTWYQQTPGKAPKLLIYNAKTLADGVPSRFSGSGSGTDYTFTISSLQPEDIATYYCQHFWSIPYTFGQGTKLQITRTVAAPDIQMTQSPSSVSASVGDRVTITCRASQGISSWLAWYQQKPGKAPKLLIYEASNLETGVPSRFSGSGSGSDFTLTISSLQPEDFATYYCQQTSSFLLSFGGGTKVEIKRTVAAPSVFIFPPSDEQLKSGTASVVCLLNNFYPREAKVQWKVDNALQSGNSQESVTEQDSKDSTYSLSSTLTLSKADYEKHKVYACEVTHQGLSSPVTKSFNRGEC
notes: as for B3
An EC50 (human IL-1β [11]) of 6.3 pM and an EC50 (human IL-1α [6]) of 4 pM were found for B5 in this work.

B6: E26.13-LL-X3 DVD-Ig (bispecific antibody, human IgG1, kappa, L234A L235A)
heavy: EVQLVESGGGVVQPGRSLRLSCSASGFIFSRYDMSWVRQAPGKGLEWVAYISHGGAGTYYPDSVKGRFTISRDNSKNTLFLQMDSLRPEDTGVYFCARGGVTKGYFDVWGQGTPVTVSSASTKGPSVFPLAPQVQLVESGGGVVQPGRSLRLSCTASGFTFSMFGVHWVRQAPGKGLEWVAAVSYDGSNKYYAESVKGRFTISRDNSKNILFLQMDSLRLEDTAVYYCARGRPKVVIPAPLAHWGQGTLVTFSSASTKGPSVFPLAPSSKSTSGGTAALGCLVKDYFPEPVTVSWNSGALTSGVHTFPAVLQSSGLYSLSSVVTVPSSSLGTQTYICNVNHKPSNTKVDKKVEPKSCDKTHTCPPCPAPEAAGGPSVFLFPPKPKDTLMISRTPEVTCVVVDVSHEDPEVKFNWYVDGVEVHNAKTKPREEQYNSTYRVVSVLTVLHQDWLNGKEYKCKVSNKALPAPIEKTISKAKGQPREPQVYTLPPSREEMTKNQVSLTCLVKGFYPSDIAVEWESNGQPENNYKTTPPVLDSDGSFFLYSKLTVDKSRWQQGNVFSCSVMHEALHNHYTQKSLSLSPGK
light: DIQMTQSPSSLSASVGDRVTITCRASGNIHNYLTWYQQTPGKAPKLLIYNAKTLADGVPSRFSGSGSGTDYTFTISSLQPEDIATYYCQHFWSIPYTFGQGTKLQITRTVAAPSVFIFPPDIQMTQSPSSVSASVGDRVTITCRASQGISSWLAWYQQKPGKAPKLLIYEASNLETGVPSRFSGSGSGSDFTLTISSLQPEDFATYYCQQTSSFLLSFGGGTKVEHKRTVAAPSVFIFPPSDEQLKSGTASVVCLLNNFYPREAKVQWKVDNALQSGNSQESVTEQDSKDSTYSLSSTLTLSKADYEKHKVYACEVTHQGLSSPVTKSFNRGEC
notes: as for B2
A Kd (cynomolgus IL-1α [3]) of 3240 pM, a koff (cynomolgus IL-1α [3]) of 0.00105 s⁻¹ and a kon (cynomolgus IL-1α [3]) of 315000 M⁻¹ s⁻¹ were found for B6 in this work. The Kd (human IL-1α [4]) was 6.15 pM, the koff (human IL-1α [4]) was 3.9e-06 s⁻¹ and the kon (human IL-1α [4]) was 646000 M⁻¹ s⁻¹. For the same binder, the EC50 (human IL-1α [6]) was 5.8 pM, the “Potency (pM): neutralization” value (cynomolgus IL-1α [7]) was 1050 pM and the “Potency (pM): neutralization” value (human IL-1α [2]) was 10.2 pM.

B7: E26.11 (antibody, V domains shown)
VH: EVQLVESGGGVVQPGRSLRLSCSASGFIFSRYDMSWVRQAPGKGLEWVAYISHGGAGTYYPDSVKGRFTISRDNSKNTLFLQMDSLRPEDTAVYYCARGGVYKGYFDVWGQGTPVTVSS
VL: DIQMTQSPSSLSASVGDRVTITCRASGNIHNYLTWYQQTPGKAPKLLIYNAKTLADGVPSRFSGSGSGTDYTFTISSLQPEDIATYYCQHFWSIPYTFGQGTKLQIT
An EC50 (human IL-1β [12]) of 14 pM was found for B7 in this work.

B8: X3-SS-E26.13 DVD-Ig (bispecific antibody, human IgG1, kappa, L234A L235A)
heavy: not shown
light: DIQMTQSPSSVSASVGDRVTITCRASQGISSWLAWYQQKPGKAPKLLIYEASNLETGVPSRFSGSGSGSDFTLTISSLQPEDFATYYCQQTSSFLLSFGGGTKVEHKRTVAAPDIQMTQSPSSLSASVGDRVTITCRASGNIHNYLTWYQQTPGKAPKLLIYNAKTLADGVPSRFSGSGSGTDYTFTISSLQPEDIATYYCQHFWSIPYTFGQGTKLQITRTVAAPSVFIFPPSDEQLKSGTASVVCLLNNFYPREAKVQWKVDNALQSGNSQESVTEQDSKDSTYSLSSTLTLSKADYEKHKVYACEVTHQGLSSPVTKSFNRGEC
notes: as for B2
An EC50 (human IL-1α [6]) of 4.5 pM was found for B8 in this work.

Reference: patent publication US20140348838A1 (AbbVie / Abbott, published 2014)
